Target: CV30 (human)
Assay: BLI

Work on “SARS-CoV-2 receptor binding domain (from UniProt P0DTC2 319-591) (domain or fragment)” yielded a Kd of 3.6 nM.

Reference: article PMC7276322
